{"source": "patent US11160869B2", "about": "(priority 2019, dated 2021)", "key": {"[1]": {"test": "Single oral capsule dose in NHP: plasma total IL-10", "type": "in vivo, Macaca fascicularis", "settings": "for plasma total IL-10 Tmax: oral", "from_the_text": "IL-10 delivery constructs (SEQ ID NO: 5) and caffeine were filled by weight into size-1 Capsugel V-Cap Hydroxypropyl Methylcellulose (HPMC) capsules, for oral administration. The capsules were then successively coated in a pan spray coater with three layers of polymers. The first and third layer were thin coatings of HPMC, the first to seal the crease where the capsule shells come together, and the third to minimize sticking of the capsules to each other. The second coating layer was comprised of a 50:50 mixture of Eudragit® (Evonik Industries AG) enteric acrylic polymers FS 30 D and L 30 D-55, designed to dissolve and allow the capsule to open at pH 6.5.\nThe MSD Small Spot IL-10 plate was washed 3 times with PBST before use. Standards were prepared in Diluent 2 (MSD Cat No R51BB), and samples diluted 2-fold in Diluent 2. Standards and diluted samples were added to the assay plate and the plate incubated for 2 hours at room temperature with shaking. The plate was washed 3 times with PBST and 1× SULFO TAG anti-huIL-10. Antibody was added to the plate before incubation for 1 hour at room temperature with shaking. Following a wash step, 2×MSD Read buffer was added to the wells of the plate and the plate is read in the MSD Sector Imager 600 plate reader. The lower limit of detection of each analyte is defined as 2.5 standard deviation above background.\nIL-10 delivery construct dosing at multiple fixed doses in non-naïve adult male Macaca fascicularis was conducted by Valley Biosystems (West Sacramento, Calif.). […] Dosing groups are described in TABLE 45.\nAnimals were fasted until after the 3 hour blood sample collection, when food was given. For dosing, the animals were manually restrained and a bite block placed between the jaws. A pill gun containing the dosing capsule was inserted into the back of the oral cavity and the capsule released. Up to 4 capsules were administered consecutively and a small amount of water given to induce swallowing. Once the administration of the dose was confirmed, the bite block was removed and the head released.\nBlood samples were collected in K2EDTA tubes from each animal pre-dose and at 0.5, 1, 2, 3, 4, 5, 6, 7, 8, and 24 hours post-dose. Animals were returned to home cages following the 2-hour sample collection. Following physical restraint, blood samples were collected via direct venous puncture using a cephalic, femoral or saphenous vein, which were processed to plasma and stored frozen at −60° C. until shipment."}, "IL-10RA and IL-10RB": {"target": "T1, IL-10RA and IL-10RB (Homo sapiens, UniProt Q08334+Q13651)", "T1 sequence (Q13651 22-578)": "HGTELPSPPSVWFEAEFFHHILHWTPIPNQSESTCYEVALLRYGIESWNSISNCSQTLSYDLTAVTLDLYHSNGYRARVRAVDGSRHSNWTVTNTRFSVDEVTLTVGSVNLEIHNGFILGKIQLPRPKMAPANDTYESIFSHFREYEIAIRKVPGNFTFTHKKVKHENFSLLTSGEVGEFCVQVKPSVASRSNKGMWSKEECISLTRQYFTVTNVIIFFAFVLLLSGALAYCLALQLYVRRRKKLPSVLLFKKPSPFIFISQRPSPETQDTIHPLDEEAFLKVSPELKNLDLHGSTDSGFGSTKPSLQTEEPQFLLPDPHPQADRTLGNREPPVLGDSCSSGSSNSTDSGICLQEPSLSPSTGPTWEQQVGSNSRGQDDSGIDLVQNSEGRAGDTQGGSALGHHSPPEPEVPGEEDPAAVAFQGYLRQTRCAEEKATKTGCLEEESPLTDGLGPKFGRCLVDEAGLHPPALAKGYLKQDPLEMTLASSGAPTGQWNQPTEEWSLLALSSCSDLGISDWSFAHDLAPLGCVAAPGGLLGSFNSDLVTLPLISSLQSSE", "T1 sequence (Q08334 20-325)": "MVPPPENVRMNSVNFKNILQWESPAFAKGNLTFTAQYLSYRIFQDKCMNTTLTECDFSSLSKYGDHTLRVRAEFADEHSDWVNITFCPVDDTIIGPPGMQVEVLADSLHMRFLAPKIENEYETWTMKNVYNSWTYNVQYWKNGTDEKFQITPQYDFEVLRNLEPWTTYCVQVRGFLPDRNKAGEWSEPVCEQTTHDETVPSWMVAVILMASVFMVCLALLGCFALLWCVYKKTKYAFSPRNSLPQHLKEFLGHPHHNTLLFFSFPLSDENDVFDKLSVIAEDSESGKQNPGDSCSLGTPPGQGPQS", "test": "IL-10 receptor dimerization luminescence assay in engineered U2OS cells", "settings": "read-out: EC50, IL-10R dimerization; 6 h"}, "[2]": {"test_system": "cells of the lamina propria (LAMP1, CD11c, CD19, CD34, CD3)", "test": "Cell targeting in the lamina propria after intraluminal injection, immunofluorescence", "type": "in vivo, Wistar rats", "method": "Rats were anesthetized using inhaled isoflurane and euthanized by inhaled CO2.\nExperiments were initiated by making an approximately 4 cm abdominal incision to access the mid-jejunum region of the small intestine. After performing the incision, 50 μl of a prepared solution of the IL-10 delivery construct (typically at about 1 mg/mL) was injected into the intestinal lumen of an area devoid of foodstuffs through a 27-gauge needle using a 1 mL syringe. The mesentery adjacent to the site of injection was labeled with a marker and the intestine was returned to the abdominal cavity, with the incision being closed with clamps.\nAt specific times, the injected intestine was retrieved, surgically isolated and flushed with a 4° C. isotonic PBS. Washed, excised samples were fixed (4% paraformaldehyde in PBS) overnight at 4° C. before dehydration through graded series of ethanol/water solutions and overnight incubation in chloroform.\nDehydrated tissues were immersed in wax, sectioned, and mounted on poylysine slides and processed for antigen retrieval using sodium citrate. Afterward, sections were permeabilised with 0.2% Triton-X100 in PBS prior to thrice washing in PBS and blocking with 2% BSA+2% serum of the animal the secondary antibodies have been raised. Primary antibodies were diluted in 1% BSA, 0.1% Triton-X100 in PBS and incubated overnight at 4° C. in humidified air. Fluorescent secondary antibodies were diluted in 1% BSA, 0.1% Triton-X100 in PBS and incubated for 2 h at RT prior to processing for confocal microscopy. On occasion, an approximately 1 cm section of intestine at the injection site was collected for biochemical studies.\nProteins for specific cell types were examined by immuno-fluorescence using confocal microscopy. The IL-10 delivery construct components (the carrier, also referred to herein as “cholix,” and IL-10) were followed separately with either a polyclonal antibody (pAb) or monoclonal antibody (mAb) to IL-10 or a pAb or mAb to the carrier domain to allow co-localization with pAb or mAbs available (TABLE 46)."}}, "data": [{"molecule": "IL-10 delivery construct: recombinant homodimeric fusion protein: N-terminal methionine, cholix386 domain, polyGlySer spacer, recombinant human IL-10 (protein, homodimer) MVEEALNIFDECRSPCSLTPEPGKPIQSKLSIPSDVVLDEGVLYYSMTINDEQNDIKDEDKGESIITIGEFATVRATRHYVNQDAPFGVIHLDITTENGTKTYSYNRKEGEFAINWLVPIGEDSPASIKISVDELDQQRNIIEVPKLYSIDLDNQTLEQWKTQGNVSFSVTRPEHNIAISWPSVSYKAAQKEGSRHKRWAHWHTGLALCWLVPMDAIYNYITQQNCTLGDNWFGGSYETVAGTPKVITVKQGIEQKPVEQRIHFSKGNAMSALAAHRVCGVPLETLARSRKPRDLTDDLSCAYQAQNIVSLFVATRILFSHLDSVFTLNLDEQEPEVAERLSDLRRINENNPGMVTQVLTVARQIYNDYVTHHPGLTPEQTSAGAQAGGGGSGGGGSGGGGSPGQGTQSENSCTHFPGNLPNMLRDLRDAFSRVKTFFQMKDQLDNLLLKESLLEDFKGYLGCQALSEMIQFYLEEVMPQAENQDPDIKAHVNSLGENLKTLRLRLRRCHRFLPCENKSKAVEQVKNAFNKLQEKGIYKAMSEFDIFINYIEAYMTMKIRN", "values": [{"measurement": "plasma total IL-10 Tmax", "setting": "[1]; 1 mg", "value": 4, "unit": "h"}, {"measurement": "plasma total IL-10 Tmax", "setting": "[1]; 4 mg", "value": 3, "unit": "h"}, {"measurement": "plasma total IL-10 Tmax", "setting": "[1]; 20.5 mg", "value": 2, "unit": "h"}, {"measurement": "plasma total IL-10 Tmax", "setting": "[1]; 82 mg", "value": 2, "unit": "h"}, {"measurement": "time at which plasma total IL-10 had returned to baseline", "setting": "[1]; all doses", "value": 6, "unit": "hours post-dose"}, {"measurement": "EC50", "setting": "IL-10RA and IL-10RB", "value": 0.971, "unit": "nM"}, {"measurement": "time by which an extensive amount reached the lamina propria", "setting": "[2]; 1-minute pulse, intraluminal injection", "value": "≤ 15", "unit": "min"}, {"measurement": "co-localization with LAMP1-positive lysosomes in enterocytes", "setting": "[2]; 15-minute time course", "value": "little or no co-localization"}, {"measurement": "co-localization with CD3 antigen (T lymphocytes)", "setting": "[2]; lamina propria", "value": "striking co-localizations"}, {"measurement": "co-localization with CD19-positive cells (B-lymphocytes)", "setting": "[2]; lamina propria", "value": "failed to co-localize"}, {"measurement": "co-localization with CD34-positive cells (endothelia)", "setting": "[2]; lamina propria", "value": "failed to co-localize"}, {"measurement": "co-localization with CD11c (dendritic cells)", "setting": "[2]; rat jejunum lamina propria", "value": "did not co-localize with CD11c antigen to any striking extent"}]}]}
